ChEMBL document CHEMBL2074012, “Multidrug resistance protein (MRP) 1 and MRP3 attenuate cytotoxic and transactivating effects of the cyclopentenone prostaglandin, 15-deoxy-Delta(12,14)prostaglandin J2 in MCF7 breast cancer cells” (Biochemistry, 2003)

B1: Multidrug resistance associated protein (Homo sapiens), Q96QA9 (protein)
chain: MDALCGSGELGSKFWDSNLSVHTENPDLTPCFQNSLLAWVPCIYLWVALPCYLLYLRHHCRGYIILSHLSKLKMVLGVLLWCVSWADLFYSFHGLVHGRAPAPVFFVTPLVVGVTMLLATLLIQYERLQGVQSSGVLIIFWFLCVVCAIVPFRSKILLAKAEGEISDPFRFTTFYIHFALVLSALILACFREKPPFFSAKNVDPNPYPETSAGFLSRLFFWWFTKMAIYGYRHPLEEKDLWSLKEEDRSQMVVQQLLEAWRKQEKQTARHKASAAPGKNASGEDEVLLGARPRPRKPSFLKALLATFGSSFLISACFKLIQDLLSFINPQLLSILIRFISNPMAPSWWGFLVAGLMFLCSMMQSLILQHYYHYIFVTGVKFRTGIMGVIYRKALVITNSVKRASTVGEIVNLMSVDAQRFMDLAPFLNLLWSAPLQIILAIYFLWQNLGPSVLAGVAFMVLLIPLNGAVAVKMRAFQVKQMKLKDSRIKLMSEILNGIKVLKLYAWEPSFLKQVEGIRQGELQLLRTAAYLHTTTTFTWMCSPFLVTLITLWVYVYVDPNNVLDAEKAFVSVSLFNILRLPLNMLPQLISNLTQASVSLKRIQQFLSQEELDPQSVERKTISPGYAITIHSGTFTWAQDLPPTLHSLDIQVPKGALVAVVGPVGCGKSSLVSALLGEMEKLEGKVHMKGSVAYVPQQAWIQNCTLQENVLFGKALNPKRYQQTLEACALLADLEMLPGGDQTEIGEKGINLSGGQRQRVSLARAVYSDADIFLLDDPLSAVDSHVAKHIFDHVIGPEGVLAGKTRVLVTHGISFLPQTDFIIVLADGQVSEMGPYPALLQRNGSFANFLCNYAPDEDQGHLEDSWTALEGAEDKEALLIEDTLSNHTDLTDNDPVTYVVQKQFMRQLSALSSDGEGQGRPVPRRHLGPSEKVQVTEAKADGALTQEEKAAIGTVELSVFWDYAKAVGLCTTLAICLLYVGQSAAAIGANVWLSAWTNDAMADSRQNNTSLRLGVYAALGILQGFLVMLAAMAMAAGGIQAARVLHQALLHNKIRSPQSFFDTTPSGRILNCFSKDIYVVDEVLAPVILMLLNSFFNAISTLVVIMASTPLFTVVILPLAVLYTLVQRFYAATSRQLKRLESVSRSPIYSHFSETVTGASVIRAYNRSRDFEIISDTKVDANQRSCYPYIISNRWLSIGVEFVGNCVVLFAALFAVIGRSSLNPGLVGLSVSYSLQVTFALNWMIRMMSDLESNIVAVERVKEYSKTETEAPWVVEGSRPPEGWPPRGEVEFRNYSVRYRPGLDLVLRDLSLHVHGGEKVGIVGRTGAGKSSMTLCLFRILEAAKGEIRIDGLNVADIGDPILFSGTLRMNLDPFGSYSEEDIWWALELSHLHTFVSSQPAGLDFQCSEGGENLSVGQRQLVCLARALLRKSRILVLDEATAAIDLETDNLIQATIRTQFDTCTVLTIAHRLNTIMDYTRVLVLDKGVVAEFDSPANLIAARGIFYGMARDAGLA
B2: Multidrug resistance-associated protein 1 (Homo sapiens) (protein)
chain: MALRGFCSADGSDPLWDWNVTWNTSNPDFTKCFQNTVLVWVPCFYLWACFPFYFLYLSRHDRGYIQMTPLNKTKTALGFLLWIVCWADLFYSFWERSRGIFLAPVFLVSPTLLGITMLLATFLIQLERRKGVQSSGIMLTFWLVALVCALAILRSKIMTALKEDAQVDLFRDITFYVYFSLLLIQLVLSCFSDRSPLFSETIHDPNPCPESSASFLSRITFWWITGLIVRGYRQPLEGSDLWSLNKEDTSEQVVPVLVKNWKKECAKTRKQPVKVVYSSKDPAQPKESSKVDANEEVEALIVKSPQKEWNPSLFKVLYKTFGPYFLMSFFFKAIHDLMMFSGPQILKLLIKFVNDTKAPDWQGYFYTVLLFVTACLQTLVLHQYFHICFVSGMRIKTAVIGAVYRKALVITNSARKSSTVGEIVNLMSVDAQRFMDLATYINMIWSAPLQVILALYLLWLNLGPSVLAGVAVMVLMVPVNAVMAMKTKTYQVAHMKSKDNRIKLMNEILNGIKVLKLYAWELAFKDKVLAIRQEELKVLKKSAYLSAVGTFTWVCTPFLVALCTFAVYVTIDENNILDAQTAFVSLALFNILRFPLNILPMVISSIVQASVSLKRLRIFLSHEELEPDSIERRPVKDGGGTNSITVRNATFTWARSDPPTLNGITFSIPEGALVAVVGQVGCGKSSLLSALLAEMDKVEGHVAIKGSVAYVPQQAWIQNDSLRENILFGCQLEEPYYRSVIQACALLPDLEILPSGDRTEIGEKGVNLSGGQKQRVSLARAVYSNADIYLFDDPLSAVDAHVGKHIFENVIGPKGMLKNKTRILVTHSMSYLPQVDVIIVMSGGKISEMGSYQELLARDGAFAEFLRTYASTEQEQDAEENGVTGVSGPGKEAKQMENGMLVTDSAGKQLQRQLSSSSSYSGDISRHHNSTAELQKAEAKKEETWKLMEADKAQTGQVKLSVYWDYMKAIGLFISFLSIFLFMCNHVSALASNYWLSLWTDDPIVNGTQEHTKVRLSVYGALGISQGIAVFGYSMAVSIGGILASRCLHVDLLHSILRSPMSFFERTPSGNLVNRFSKELDTVDSMIPEVIKMFMGSLFNVIGACIVILLATPIAAIIIPPLGLIYFFVQRFYVASSRQLKRLESVSRSPVYSHFNETLLGVSVIRAFEEQERFIHQSDLKVDENQKAYYPSIVANRWLAVRLECVGNCIVLFAALFAVISRHSLSAGLVGLSVSYSLQVTTYLNWLVRMSSEMETNIVAVERLKEYSETEKEAPWQIQETAPPSSWPQVGRVEFRNYCLRYREDLDFVLRHINVTINGGEKVGIVGRTGAGKSSLTLGLFRINESAEGEIIIDGINIAKIGLHDLRFKITIIPQDPVLFSGSLRMNLDPFSQYSDEEVWTSLELAHLKDFVSALPDKLDHECAEGGENLSVGQRQLVCLARALLRKTKILVLDEATAAVDLETDDLIQSTIRTQFEDCTVLTIAHRLNTIMDYTRVIVLDKGEIQEYGAPSDLLQQRGLFYSMAKDAGLV

Tests used:
Type in all cases: functional, cell-based
[1] = substrate: CN(Cc1cnc2nc(N)nc(N)c2n1)c1ccc(C(=O)N[C@@H](CCC(=O)O)C(=O)O)cc1; experiment: (§1) TP_TRANSPORTER: uptake in MRP3-expressing MCF7 cells
[2] = substrate: N[C@@H](CCC(=O)N[C@H](CSCCCCC/C=C/C=C1/C(=O)C=C[C@@H]1C/C=C\CCCC(=O)O)C(=O)NCC(=O)O)C(=O)O; experiment: as §1
[3] = substrate: CN(Cc1cnc2nc(N)nc(N)c2n1)c1ccc(C(=O)N[C@@H](CCC(=O)O)C(=O)O)cc1; experiment: (§2) TP_TRANSPORTER: uptake in MRP1-expressing MCF7 cells
[4] = substrate: N[C@@H](CCC(=O)N[C@H](CSCCCCC/C=C/C=C1/C(=O)C=C[C@@H]1C/C=C\CCCC(=O)O)C(=O)NCC(=O)O)C(=O)O; experiment: as §2

Protein | Km [1] [µM] | Km [2] [µM] | Km [3] [µM] | Km [4] [µM]
B1 | 910 | 2.9 |  | 
B2 |  |  | 930 | 1.4
